Results as given in PMC3688963, “Biochemical Characterization of Hypothetical Proteins from Helicobacter pylori” (PLoS ONE, 2013).

Columns and labels:
[1] = substrate: O=[N+]([O-])c1ccc(OP(=O)(O)Oc2ccc([N+](=O)[O-])cc2)cc1; assay: purified protein; format: biochemical, Helicobacter pylori; conditions: 1.0 mM MnCl2, 100 mM sodium citrate pH 4.5 (4.0 in Figure 1 legend), 30°C
[2] = substrate: [H][C@@]12COP(=O)(O)O[C@@]1([H])[C@@H](O)[C@H](n1cnc3c(=O)[nH]c(N)nc31)O2; assay: alkaline phosphatase-coupled phosphate release, malachite green; format: biochemical, Helicobacter pylori; conditions: 0.1 mM MnCl2, pH 4.0-4.5, 30°C
[3] = substrate: Nc1nc2c(ncn2[C@@H]2O[C@H](COP(=O)(O)OP(=O)(O)OP(=O)(O)O)[C@@H](O)[C@H]2O)c(=O)[nH]1; assay: fluorimetric neopterin detection after iodine oxidation and alkaline phosphatase; format: biochemical, Helicobacter pylori; conditions: 100 mM sodium citrate pH 4.0, 30°C, 2.5 mM EDTA
Text: fluorimetric neopterin detection after iodine oxidation and alkaline phosphatase on HP0959

[4] = substrate: Cc1cc(=O)oc2cc(NC(=O)[C@H](CCCNC(=N)N)NC(=O)[C@@H](N)Cc3ccccc3)ccc12; assay: purified protein; conditions: 100 mM sodium citrate pH 4.5, 30°C, 5 mM CaCl2, 0.1% Brij
[5] = substrate: Nc1nc2c(ncn2[C@@H]2O[C@H](COP(=O)(O)OP(=O)(O)OP(=O)(O)O)[C@@H](O)[C@H]2O)c(=O)[nH]1; assay: phosphate release, malachite green; format: biochemical, Helicobacter pylori; conditions: 10 mM MgCl2, 10% glycerol, 100 mM sodium acetate pH 6.0, 30°C
Text: phosphate release, malachite green on HP1079

[6] = substrate: Nc1ncnc2nc[nH]c12; assay: purified protein; format: biochemical, Helicobacter pylori; conditions: 100 mM HEPES pH 7.5, 30°C, native protein

B1: HP1042 (Helicobacter pylori 26695) (protein)
chain: MMQVYHLSHIDLDGYACQLVSKQFFKNIQCYNANYGREVSARIYEILNAIAQSKESEFLILVSDLNLNLNEAEYLQDKIQEHRLQNKNIQIQLLDHHISGKEVAESFHWYFLDINRCATKIVYEFLKKHYAILEPKNTTWLEPLVEMVNSVDIWDTQGYGFELGKVCMRMINQSSELNRFMFDDENRNYKLKLLEEVKNYLFLENAPVAYDNDLFKLKKIALGGDPDAETMDNISSNAQTHLLSLKKHDCSVYYQDKKGFLSYSMGGISVLANLFLTQNPDFDFYMDVNAKGNVSLRANGNCDVCELSQMCFNGGGHRNASGGKIDGFRESFNYRDIKEQIEEIFNNA
notes: native protein captured with cAMP-coated nano-particles; His6 recombinant also made
Km [1]: 530 ± 40 µM | Vmax [1]: 1130 µM/min | kcat [1]: 18.1 ± 0.2 s⁻¹ | kcat/Km [1]: 34100 M⁻¹ s⁻¹ | Km [2]: 820 ± 150 µM | Vmax [2]: 5130 µM/min | kcat [2]: 15.9 ± 1.37 s⁻¹ | kcat/Km [2]: 19500 M⁻¹ s⁻¹

B2: HP0959 (Helicobacter pylori 26695) (protein)
chain: MALVKEVLVVLNRLSPFELQESWDNSGLNVGSENSEFSEIVACLEITLKIALNAPQNALIITHHPLIFKPLKTLNDEIYPGNILKILIQKNVSVISMHTNFDKTHLNKHFAHALLEFDGLVEKGLMLVKENANIEFDALVKKIKSSLGVGSLACVKSSQTIKDLAFVCGSGASMFSSLKAQSCLITGDVKYHDAMIAQSLGISLIDATHYYSERGFALIVAEILHSFNYLVTIENFKNPLQII
notes: native protein captured with GTP/dihydroneopterin triphosphate-coated nano-particles (co-captured with HP0803); His6 recombinant also active
Km [3]: 40 ± 5 µM | Vmax [3]: 1420 µM/min | kcat [3]: 43.2 ± 0.483 s⁻¹ | kcat/Km [3]: 1.08e+06 M⁻¹ s⁻¹

B3: HP1037 (Helicobacter pylori 26695) (protein)
chain: MKGLERESHFTLNENAMFFECAYSCDNALFLQLDDRSFFITDSRYTQEAKESVQPKNGVLAEVVESSDLVQSAIDLIVKSSVKKLFFDPNQVNLQTYKRLNSALGDKVALEGVPSYHRQKRIIKNEHEIQLLKKSQALNVEAFENFAEYVKKIFDEKESLSERYLQHKVKDFLTREGVYDLSFEPILALNANASKPHALPSAKDFLKAEHSILLDMGIKYERYCSDRTRTAFFDPKDFVFKREQSFKDKERQKIYDIVKEAQEKAISGIRAGMTGKEADSLARGVISDYGYGQYFTHSTGHGIGLDIHELPYISSRSETILEEGMVFSVEPGIYIPGFFGVRIEDLVVIKNSRSELL
Km [4]: 7430 ± 360 µM | Vmax [4]: 750 µM/min | kcat [4]: 0.17 s⁻¹ | kcat/Km [4]: 20 M⁻¹ s⁻¹

B4: HP1079 (Helicobacter pylori 26695) (protein)
chain: MIQSVRIKNFKNFKNTKIDGFTKLNIITGQNNAGKSNLLEALYYLVGKSMHPCTNVLEIYDNIRKEPLTSESKSLMFYGLDTKEEIQIVTTLDNNQTLDLQIKFIASENQKVIESQIIPTAEQTQMSSQLNFTLKKNNEEIYNDHLNIAKVPNFPPIPNQSGYNRQFKNFDSNQLQKLLPFESAVIIPSDVVYRQAHMIQAVSKICSNNQLEEELNKHLNQFDNNIQAISFNTNNQLKLKVKDIKEKVPLSVFGDGLKKYLHIVSAFMADNAKTIYIDEVENGLHFSRMRLLLKNTIDFINNNKDGNLQVFMTTHSQEFIEILDQVIREKDFAHQTKLFCLKQDDQYVIPRTYYGENLEYYFENEENLFG
notes: native protein captured with GTP-coated nano-particles; His6 recombinant also made
Km [5]: 580 ± 50 µM | kcat [5]: 0.0095 ± 0.002 s⁻¹ | kcat/Km [5]: 20 M⁻¹ s⁻¹

B5: HP0267 (native protein) (Helicobacter pylori 26695) (protein)
chain: MQEIIGASLVFLCNEKCEVLEDYGVVFDEKIVEIGDYQSLTLKYPHLKAQFFENSVLLPAFINAHTHFEFSNNKASFDYGSFSGWLGSVLNNGGAILENCQGAIQNAISTQLKSGVGSVGAISNHLIEVNLLKESPLNAVVFLEFLGSSYSLEKLKAFEAKFKELKDLEDKKLKAALAVHAPYSVQKDMALSVIQLAKDSQSLLSTHFLESLEELEWVENSKGWFENFYQHFLKESHFKSLYKGANDYIDMFKDTHTLFVHNQFASLEALKRIKSQVKNAFLITCPFSNRLLSGQALDLERTKEAGLSVSVATDGLSSNISLSLLDELRAFLLTHNMPLLELAKIALLGATRHGAKALALNNGEIEANKRADLSVFGFNEKFTKEQAILQFLLHAKEVECLFLGGKRVI
notes: native protein captured from H. pylori lysate with adenine-coated gold nano-particles, gel filtration; no tag
Km [6]: 2040 ± 160 µM | Vmax [6]: 3 µM/min | kcat [6]: 0.00783 ± 0.00217 s⁻¹ | kcat/Km [6]: 4 M⁻¹ s⁻¹
